{"source": "IntAct's records for PubMed 32851177", "parents": {"B1": {"name": "Osteopetrosis-associated transmembrane protein 1 (Homo sapiens), Q86WC4 (parent)", "chain": "MEPGPTAAQRRCSLPPWLPLGLLLWSGLALGALPFGSSPHRVFHDLLSEQQLLEVEDLSLSLLQGGGLGPLSLPPDLPDLDPECRELLLDFANSSAELTGCLVRSARPVRLCQTCYPLFQQVVSKMDNISRAAGNTSESQSCARSLLMADRMQIVVILSEFFNTTWQEANCANCLTNNSEELSNSTVYFLNLFNHTLTCFEHNLQGNAHSLLQTKNYSEVCKNCREAYKTLSSLYSEMQKMNELENKAEPGTHLCIDVEDAMNITRKLWSRTFNCSVPCSDTVPVIAVSVFILFLPVVFYLSSFLHSEQKKRKLILPKRLKSSTSFANIQENSN", "partner": "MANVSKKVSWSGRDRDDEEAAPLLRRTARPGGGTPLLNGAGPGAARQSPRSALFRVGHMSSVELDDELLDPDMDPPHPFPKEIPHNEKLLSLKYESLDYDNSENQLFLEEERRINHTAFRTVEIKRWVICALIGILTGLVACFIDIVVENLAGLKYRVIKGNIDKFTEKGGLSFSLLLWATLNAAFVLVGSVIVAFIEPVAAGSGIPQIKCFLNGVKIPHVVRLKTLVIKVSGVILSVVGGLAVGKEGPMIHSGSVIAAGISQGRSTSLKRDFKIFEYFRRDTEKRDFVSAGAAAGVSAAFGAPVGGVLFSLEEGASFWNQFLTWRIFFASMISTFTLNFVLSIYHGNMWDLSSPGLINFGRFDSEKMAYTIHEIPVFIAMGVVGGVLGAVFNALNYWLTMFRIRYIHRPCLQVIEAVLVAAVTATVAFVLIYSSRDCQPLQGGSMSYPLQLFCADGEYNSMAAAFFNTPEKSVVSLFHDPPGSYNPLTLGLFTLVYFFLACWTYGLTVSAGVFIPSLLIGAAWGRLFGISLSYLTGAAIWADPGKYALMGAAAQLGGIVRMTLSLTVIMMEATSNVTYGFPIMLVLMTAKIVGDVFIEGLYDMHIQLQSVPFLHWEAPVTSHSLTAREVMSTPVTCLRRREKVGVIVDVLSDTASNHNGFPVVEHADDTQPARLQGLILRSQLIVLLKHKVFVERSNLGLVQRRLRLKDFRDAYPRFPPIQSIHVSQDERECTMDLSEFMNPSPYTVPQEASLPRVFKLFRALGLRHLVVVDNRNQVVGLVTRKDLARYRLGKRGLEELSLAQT"}}}
{"variants_of": "B1", "settings": "with clcn7_human CLCN7, P51798"}
{"variant": "Y300A", "effect of a mutation on the interaction": "decreasing interaction strength"}
